Assay results taken from PMC6668613 (Nature plants, 2019).
Like-named read-outs stand apart in the source and are kept apart here. Each block holds one binder with its values, some of them ahead of it. Ends that are not written are not given here.

How the values were obtained:
Assay in all cases: BLI
GST-MPK6 [1] = biological target: T1, GST-MPK6 (Arabidopsis thaliana, UniProt Q39026 1-395)
GST-MPK3 = biological target: T2, GST-MPK3 (Arabidopsis thaliana, UniProt Q39023 1-370)
T2 sequence (looked up): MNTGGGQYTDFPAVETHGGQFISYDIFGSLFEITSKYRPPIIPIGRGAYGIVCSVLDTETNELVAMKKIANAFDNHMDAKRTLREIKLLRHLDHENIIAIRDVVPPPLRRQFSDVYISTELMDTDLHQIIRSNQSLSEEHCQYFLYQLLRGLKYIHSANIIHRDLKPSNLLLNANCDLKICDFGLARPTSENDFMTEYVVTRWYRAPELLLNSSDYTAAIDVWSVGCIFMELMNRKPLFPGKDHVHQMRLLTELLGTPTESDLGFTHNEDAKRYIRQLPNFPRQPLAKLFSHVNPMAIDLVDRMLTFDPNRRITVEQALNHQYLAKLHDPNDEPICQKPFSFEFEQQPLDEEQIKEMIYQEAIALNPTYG

GST-MPK6 [2] = biological target: T1, GST-MPK6; remark: listed apart in the source

T1 sequence (Q39026 whole entry): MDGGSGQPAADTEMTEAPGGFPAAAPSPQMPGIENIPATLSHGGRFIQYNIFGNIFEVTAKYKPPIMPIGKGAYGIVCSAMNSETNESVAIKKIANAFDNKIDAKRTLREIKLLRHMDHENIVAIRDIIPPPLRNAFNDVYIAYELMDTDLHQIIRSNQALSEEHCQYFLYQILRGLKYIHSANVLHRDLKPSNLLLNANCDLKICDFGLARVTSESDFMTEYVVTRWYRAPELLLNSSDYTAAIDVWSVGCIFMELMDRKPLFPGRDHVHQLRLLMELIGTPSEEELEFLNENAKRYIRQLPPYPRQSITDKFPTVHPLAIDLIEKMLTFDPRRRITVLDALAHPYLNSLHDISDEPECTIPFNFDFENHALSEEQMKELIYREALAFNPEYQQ

Kd (GST-MPK6 [1]): 2300 ± 500 nM
B1: Docking motif peptide, biotinylated (peptide)
chain: GGFVGNRAKVLKPLEVL
modifications: also: biotinylated, position not given here

Kd (GST-MPK3): 2800 ± 700 nM
Kd (GST-MPK6 [1]): 2400 ± 400 nM
B2: KRAAM motif peptide, biotinylated (peptide)
chain: ASSGAQPTLFQKRAAMRQ
modifications: also: biotinylated, position not given here

Kd (GST-MPK6 [2]): 47 ± 6 nM
B3: SCRM KiDoK full-length peptide, biotinylated (peptide)
chain: GGFVGNRAKVLKPLEVLASSGAQPTLFQKRAAMRQ
modifications: also: biotinylated, position not given here
